Common to all, as to experiment: flow cytometry on RBCs, antibody 10 ng/ml
For orientation: A flow cytometer gives signals particle by particle.

One experiment deals with T1, rat CD47 (rat, UniProt P97829 19-303).
T1 construct: whole, on cells; also called CD47 on rat red blood cells
T1 sequence (looked up): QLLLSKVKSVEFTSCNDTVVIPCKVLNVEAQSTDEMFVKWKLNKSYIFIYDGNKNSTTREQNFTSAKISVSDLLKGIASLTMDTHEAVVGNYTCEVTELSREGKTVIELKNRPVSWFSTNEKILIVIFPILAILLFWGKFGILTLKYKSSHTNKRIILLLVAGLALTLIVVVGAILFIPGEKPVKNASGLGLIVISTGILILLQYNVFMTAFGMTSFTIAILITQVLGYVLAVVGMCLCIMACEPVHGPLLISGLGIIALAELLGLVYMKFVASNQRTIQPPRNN
Here is the method: (§1) Cross species reactivity of humanized antibodies of the present invention is determined using freshly isolated red blood cells (RBCs), which display CD47 on their surface, from human, mouse, rat, and pig according to the methods disclosed in Kamel et al. (2010) Blood. Transfus. 8(4):260-266.
(§2) RBCs are incubated for 60 minutes on ice with tissue culture supernatants containing the secreted humanized antibodies at a concentration of 10 ng/ml in a solution of phosphate buffered saline, pH 7.2, 2.5 mM EDTA (PBS+E). Cells are then washed with cold PBS+E, and incubated for an additional hour on ice with FITC labeled donkey anti-human antibody (Jackson Immuno Research Labs, West Grove, Pa.; Catalogue #709-096-149) in PBS+E. Cells are then washed with PBS+E, and antibody binding is analyzed using a BD FACSAria Cell Sorter (Becton Dickinson) or a C6 Accuri Flow Cytometer (Becton Dickinson). Antibody binding is quantitated by comparison of mean fluorescence values relative to that of chimeric antibody >VxP037-01LC (SEQ ID NO:7))/>VxP037-01HC (SEQ ID NO:57). The mean fluorescence value for each antibody is divided by the mean fluorescence value for the chimeric antibody.

The target of another experiment is T2, human CD47 (human, UniProt Q08722 19-323).
T2 construct: whole, on cells; also called CD47 on human red blood cells
As for the experimental part:
as §1, §2

Another experiment addresses T3, pig CD47 (pig, UniProt Q9GKE8 19-303).
T3 construct: whole, on cells; also called CD47 on pig red blood cells
T3 sequence (looked up): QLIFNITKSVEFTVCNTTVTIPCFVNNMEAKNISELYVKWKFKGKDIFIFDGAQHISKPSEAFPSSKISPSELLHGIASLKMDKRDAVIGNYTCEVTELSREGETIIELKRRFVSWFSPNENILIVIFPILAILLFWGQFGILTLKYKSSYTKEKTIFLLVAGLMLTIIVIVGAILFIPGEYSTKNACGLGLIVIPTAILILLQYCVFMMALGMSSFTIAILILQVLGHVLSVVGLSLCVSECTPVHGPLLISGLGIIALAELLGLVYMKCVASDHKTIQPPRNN
Here is the method:
as §1, §2

The target in a further experiment is T4, mouse CD47 (mouse, UniProt Q61735 19-303).
T4 construct: whole, on cells; also called CD47 on mouse red blood cells
T4 sequence (looked up): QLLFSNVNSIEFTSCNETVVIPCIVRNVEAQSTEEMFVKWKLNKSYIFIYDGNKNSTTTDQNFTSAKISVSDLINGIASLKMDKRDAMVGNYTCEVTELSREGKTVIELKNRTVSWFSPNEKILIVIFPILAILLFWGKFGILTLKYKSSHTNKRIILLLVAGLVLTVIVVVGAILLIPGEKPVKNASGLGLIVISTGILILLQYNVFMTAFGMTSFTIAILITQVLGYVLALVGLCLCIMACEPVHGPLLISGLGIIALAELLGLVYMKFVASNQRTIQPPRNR
Here is the method:
as §1, §2

Positions count from the first letter of the chain named.

T2 sequence (Q08722 19-323): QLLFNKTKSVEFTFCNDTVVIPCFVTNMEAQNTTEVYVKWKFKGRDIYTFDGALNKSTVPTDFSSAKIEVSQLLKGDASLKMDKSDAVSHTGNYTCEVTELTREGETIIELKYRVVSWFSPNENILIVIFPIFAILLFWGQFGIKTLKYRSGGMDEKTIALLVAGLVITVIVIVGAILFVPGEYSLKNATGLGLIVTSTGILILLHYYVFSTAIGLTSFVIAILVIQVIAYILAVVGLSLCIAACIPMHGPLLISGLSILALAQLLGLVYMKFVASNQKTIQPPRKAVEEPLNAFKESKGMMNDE

B1: chimeric antibody VxP037-01LC/VxP037-01HC (antibody, human IgG1, kappa, V domains shown)
VH: EVQLQQFGAELVKPGASMKLSCKASGYTFTNYYVFWVKQRPGQGLEWIGDINPVNGDTNFNEKFKNKATLTVDKSSTTTYLQLSSLTSEDSAVYYCTRGGYTMDYWGQGTLVTVSS
VL: DVVMTQTPLSLSVSLGDQASISCRSSQSLVHSNGNTYLHWYLQKPGQSPKLLIYKVSYRFSGVPDRFSGSGSGTDFTLKISRVEAEDLGVYFCSQNTHVPRTFGQGTKVEIKR
notes: tested as CHO supernatant; also called Chimera; VxP037-01-LC-Pro/VxP037-01-HC-Pro
As for B1, the “mean fluorescence relative to chimeric antibody” value with rat CD47, with human CD47, with pig CD47 and with mouse CD47 was 1 fold of chimera throughout.

B2: pVxK7b-037-hum02-LC/pVxK7b-037-hum02-HC (antibody, human IgG1, V domains shown)
VH: QVQLQESGPGLVKPSQTLSLTCTVSGYTFTNYYVFWVRQARGQRLEWIGDINPVNGDTNFNEKFKNRVTISADKSISTAYLQWSSLKASDTAMYYCARGGYTMDYWGQG
VL: DVVMTQSPLSLPVTLGQPASISCRSSQSLVHSNGNTYLHWYQQKPGQAPRLLIYKVSYRFSGVPSRFSGSGSGTEFTLTISSLQPDDFATYYCSQNTHVPRTFGQG
notes: Full-length human IgG1/kappa in CHO supernatant; Variable entries end within framework 4 (...FGQG / ...WGQG); also called Clone 2
On to B2, for which the “mean fluorescence relative to chimeric antibody” value was 2.6 fold of chimera with rat CD47, 1 fold of chimera with human CD47, 1.2 fold of chimera with pig CD47 and 1.2 fold of chimera with mouse CD47.

B3: pVxK7b-037-hum24-LC/pVxK7b-037-hum24-HC (antibody, human IgG1, V domains shown)
VH: QVQLQESGPGLVKPGATVKISCKVSGYTFTNYYVFWVRQARGQRLEWIGDINPVNGDTNFNEKFKNRVTITADKSTSTAYMELSSLRSEDTAVYYCARGGYTMDYWGQG
VL: AIQLTQSPSSLSASVGDRVTITCRSSQSLVHSNGNTYLHWYQQKPGQAPRLLIYKVSYRFSGVPSRFSGSGSGTEFTLTISSLQPDDFATYYCSQNTHVPRTFGQG
notes: Full-length human IgG1/kappa in CHO supernatant; Variable entries end within framework 4 (...FGQG / ...WGQG); also called Clone 24
Regarding B3, the “mean fluorescence relative to chimeric antibody” value with rat CD47 is 1.2 fold of chimera; with human CD47, 0.8 fold of chimera; with pig CD47, 1.1 fold of chimera; in the experiment with mouse CD47, 0.7 fold of chimera.

B4: pVxK7b-037-hum07-LC/pVxK7b-037-hum07-HC (antibody, human IgG1, V domains shown)
VH: B3 VH
VL: DIVMTQTPLSLPVTPGEPASISCRSSQSLVHSNGNTYLHWYLQKPGQSPQLLIYKVSYRFSGVPDRFSGSGSGTDFTLKISRVEAEDVGVYYCSQNTHVPRTFGQG
notes: Full-length human IgG1/kappa in CHO supernatant; Variable entries end within framework 4 (...FGQG / ...WGQG); also called Clone 7
In the case of B4, the “mean fluorescence relative to chimeric antibody” value is 0.8 fold of chimera with rat CD47, 0.5 fold of chimera with human CD47, 0.9 fold of chimera in the experiment with pig CD47 and 0.4 fold of chimera in the experiment with mouse CD47.

B5: pVxK7b-037-hum15-LC/pVxK7b-037-hum15-HC (antibody, human IgG1, V domains shown)
VH: QVQLQESGPGLVKPSQTLSLTCTVSGYTFTNYYVFWVRQARGQRLEWIGDINPVNGDTNFNEKFKNRLTISKDTSKNQVVLTMTNMDPVDTATYYCARGGYTMDYWGQG
VL: B3 VL
notes: Full-length human IgG1/kappa in CHO supernatant; Variable entries end within framework 4 (...FGQG / ...WGQG); also called Clone 15
Consider B5, for which the “mean fluorescence relative to chimeric antibody” value with rat CD47 was 2.4 fold of chimera; in the experiment with human CD47 it was 1 fold of chimera; with pig CD47, 1.2 fold of chimera; with mouse CD47, 1.3 fold of chimera.

B6: pVxK7b-037-hum04-LC/pVxK7b-037-hum04-HC (antibody, human IgG1, V domains shown)
VH: QVQLQESGPGLVKPSQTLSLTCTVSGYTFTNYYVFWVRQAPGKGLEWVSDINPVNGDTNFNEKFKNRVTISVDTSKNQFSLKLSSVTAADTAVYYCARGGYTMDYWGQG
VL: B3 VL with A1D, L4M, Q42L, A48S, R50Q, V63I, S65A, P85S, D86E, T90V
notes: Full-length human IgG1/kappa in CHO supernatant; Variable entries end within framework 4 (...FGQG / ...WGQG); also called Clone 4
Consider B6, for which the “mean fluorescence relative to chimeric antibody” value in the experiment with rat CD47 was 1 fold of chimera; in the experiment with human CD47, 0.6 fold of chimera; with pig CD47, 0.6 fold of chimera; with mouse CD47 it was 0.6 fold of chimera.

B7: pVxK7b-037-hum21-LC/pVxK7b-037-hum21-HC (antibody, human IgG1, V domains shown)
VH: B5 VH
VL: AIQLTQSPSSLSASVGDRVTITCRSSQSLVHSNGNTYLHWYQQKPGQAPRLLIYKVSYRFSGVPDRFSGSGSGTDFTLKISRVEAEDVGVYYCSQNTHVPRTFGQG
notes: Full-length human IgG1/kappa in CHO supernatant; Variable entries end within framework 4 (...FGQG / ...WGQG); also called Clone 21
In the case of B7, the “mean fluorescence relative to chimeric antibody” value in the experiment with rat CD47 is 2.8 fold of chimera; in the experiment with human CD47, 1.2 fold of chimera; in the experiment with pig CD47, 1.4 fold of chimera; with mouse CD47 it was 1.2 fold of chimera.

B8: pVxK7b-037-hum06-LC/pVxK7b-037-hum06-HC (antibody, human IgG1, V domains shown)
VH: B5 VH
VL: B3 VL with A1D, L4M, Q42L, A48S, R50Q, V63I, S65A, P85S, D86E, T90V
notes: Full-length human IgG1/kappa in CHO supernatant; Variable entries end within framework 4 (...FGQG / ...WGQG); also called Clone 6
For B8, the “mean fluorescence relative to chimeric antibody” value was 2.1 fold of chimera with rat CD47, 0.9 fold of chimera in the experiment with human CD47, 1.1 fold of chimera in the experiment with pig CD47 and 1.2 fold of chimera with mouse CD47.

B9: pVxK7b-037-hum12-LC/pVxK7b-037-hum12-HC (antibody, human IgG1, V domains shown)
VH: B3 VH
VL: B4 VL with L42Q, Q47K, S48A, Q50K
notes: Full-length human IgG1/kappa in CHO supernatant; Variable entries end within framework 4 (...FGQG / ...WGQG); also called Clone 12
Turning to B9, the “mean fluorescence relative to chimeric antibody” value with rat CD47 was 1.3 fold of chimera; with human CD47, 0.8 fold of chimera; in the experiment with pig CD47, 1.4 fold of chimera; in the experiment with mouse CD47 it was 0.6 fold of chimera.

B10: pVxK7b-037-hum19-LC/pVxK7b-037-hum19-HC (antibody, human IgG1, V domains shown)
VH: EVQLVQSGAEVKKPGESLRISCKGSGYTFTNYYVFWIRQSPSRGLEWLGDINPVNGDTNFNEKFKNRVTITADKSTSTAYMELSSLRSEDTAVYYCARGGYTMDYWGQG
VL: B4 VL with I2V, T7S, P15L, E17Q, L42Q, Q47K, S48A, Q50K
notes: Full-length human IgG1/kappa in CHO supernatant; Variable entries end within framework 4 (...FGQG / ...WGQG); also called Clone 19
Consider B10, for which the “mean fluorescence relative to chimeric antibody” value is 2.6 fold of chimera in the experiment with rat CD47, 0.7 fold of chimera in the experiment with human CD47, 1.3 fold of chimera with pig CD47 and 1 fold of chimera with mouse CD47.

B11: pVxK7b-037-hum08-LC/pVxK7b-037-hum08-HC (antibody, human IgG1, V domains shown)
VH: QITLKESGPTLVKPTQTLTLTCTFSGYTFTNYYVFWIRQSPSRGLEWLGDINPVNGDTNFNEKFKNRFTISRDNAKNSLYLQMNSLRAEDTAVYYCARGGYTMDYWGQG
VL: B4 VL with L42Q, Q47K, S48A, Q50K
notes: Full-length human IgG1/kappa in CHO supernatant; Variable entries end within framework 4 (...FGQG / ...WGQG); also called Clone 8
For B11, the “mean fluorescence relative to chimeric antibody” value with rat CD47 is 1.2 fold of chimera; with human CD47 it was 0.7 fold of chimera; in the experiment with pig CD47, 0.8 fold of chimera; with mouse CD47 it was 0.7 fold of chimera.

B12: pVxK7b-037-hum05-LC/pVxK7b-037-hum05-HC (antibody, human IgG1, V domains shown)
VH: B6 VH
VL: B4 VL
notes: Full-length human IgG1/kappa in CHO supernatant; Variable entries end within framework 4 (...FGQG / ...WGQG); also called Clone 5
Regarding B12, the “mean fluorescence relative to chimeric antibody” value was 2.2 fold of chimera with rat CD47, 1 fold of chimera with human CD47, 1.2 fold of chimera with pig CD47 and 1 fold of chimera with mouse CD47.

B13: pVxK7b-037-hum13-LC/pVxK7b-037-hum13-HC (antibody, human IgG1, V domains shown)
VH: B10 VH
VL: B4 VL with L42Q, Q47K, S48A, Q50K
notes: Full-length human IgG1/kappa in CHO supernatant; Variable entries end within framework 4 (...FGQG / ...WGQG); also called Clone 13
Regarding B13, the “mean fluorescence relative to chimeric antibody” value in the experiment with rat CD47 was 3.1 fold of chimera; with human CD47, 1.2 fold of chimera; in the experiment with pig CD47, 1.4 fold of chimera; in the experiment with mouse CD47, 1.3 fold of chimera.

B14: pVxK7b-037-hum03-LC/pVxK7b-037-hum03-HC (antibody, human IgG1, V domains shown)
VH: B10 VH with I37V, S40A, P41R, S42G, R43Q, G44R, L48I
VL: B4 VL with I2V, T7S, P15L, E17Q, L42Q, Q47K, S48A, Q50K
notes: Full-length human IgG1/kappa in CHO supernatant; Variable entries end within framework 4 (...FGQG / ...WGQG); also called Clone 3
Take B14: the “mean fluorescence relative to chimeric antibody” value was 1.7 fold of chimera with rat CD47, 0.7 fold of chimera with human CD47, 0.9 fold of chimera in the experiment with pig CD47 and 0.9 fold of chimera with mouse CD47.
